Usually Km stands for the concentration of substrate that gives half-maximal velocity. By kcat/Km is commonly meant the second-order rate constant that governs catalysis at low substrate concentration.

For four proteins, Km, kcat and kcat/Km results are on record in PMC10696552.

Substrate in series [1]: N[C@@H](CS)C(=O)O
As to the kind of experiment: purified protein. Conditions: co-substrate L-His; 23 °C.

Substrate in series [2]: N[C@@H](Cc1c[nH]cn1)C(=O)O
As to the kind of experiment: purified protein. Conditions: co-substrate L-Cys.

Substrate in series [3]: C[N+](C)(C)[C@@H](Cc1cnc[nH]1)C(=O)[O-]
As to the kind of experiment: O2 consumption, NeoFoxy oxygen electrode. Type of series: biochemical, Hydrogenimonas thermophila. The note with it: co-substrate L-Cys, 23 °C.

Substrate in series [4]: N[C@@H](CS)C(=O)O
Nature of the series: O2 consumption, NeoFoxy oxygen electrode. It counts as biochemical, Hydrogenimonas thermophila. The note with it: co-substrate L-His, 23 °C.

Substrate in series [5]: N[C@@H](Cc1c[nH]cn1)C(=O)O
As to the kind of experiment: O2 consumption, NeoFoxy oxygen electrode. It counts as biochemical, Hydrogenimonas thermophila. Conditions: co-substrate L-Cys, 23 °C.

B1: OvoATh2 (Hydrogenimonas thermophila; Y399F) (protein)
chain: NKILLRPLLLKQKNPENLRQLIKKSFHRTFDTFESLFSMLRNDEAFYNRPEPLRHPHIFYFGHTAVFFINKLILSKIIDTRINAKMESIFAIGVDEMSWDDLNDDHYEWPSVEETRLYRNRVREVVDNLINTLPLELPITWDSPWWIILMGIEHERIHIETSSVLIRQTDISLVLPQPEWSKCNVSGKAPENELLFVPGGEIEIGKYKSDDYYGWDNEYGKHKTVIPDFKASKYLVSNGEFMEFVKDGGYENDLWWEEEGLAWRNFKKAKHPIFWIPFKNEYRYRTLTEIVDMPLDWPVDVNYHEAKAFCNWLSAKKGKPIRLPVEDEWYRLKEYCNVPDVSKWDEKAPANINLEHYASACPVTQFSFGNFYDVIGNVWQWTETPIYPFNGFKIHPIFDDFSTPTFDNRHNLIKGGSFISTGNEILASSRYAFRRHFFQHAGFRYVESSYKEKINSSGYESDTQVSQYCEFGWGDRYFGIENYPKRCAKICIEVTEGKPRKKALDVGCAIGRSTLELATSFESVTGLDFSARFIEMAERMRKDGSIRYTITTEGELVEYKEATLPKRLAKVVDRVEFWQADACNLKPIFTGYDLVFAGNLIDRLYDPAKFLNDIGKRINSGGMLILTSPYTWLEEFTPKQKWLGGFKQDGEPVKSIDGLKSHLKDSFKLIETRDIEFVIRETARKFQHSVAQMSIWEKI
In the case of B1, in the series “purified protein [1]”, the Michaelis-Menten constant (Km) amounted to 575.2 ± 22.0 µM, the kcat was 361.2 ± 5.9 min^–1 and the kcat/Km is 10500 M⁻¹ s⁻¹. Further, in “purified protein [2]” (23 °C), the Km was 38.2 ± 2.6 µM and the kcat is 361.2 ± 5.9 min^–1.

B2: OvoATh2 (Hydrogenimonas thermophila; Y399F/Y61F) (protein)
chain: NKILLRPLLLKQKNPENLRQLIKKSFHRTFDTFESLFSMLRNDEAFYNRPEPLRHPHIFFFGHTAVFFINKLILSKIIDTRINAKMESIFAIGVDEMSWDDLNDDHYEWPSVEETRLYRNRVREVVDNLINTLPLELPITWDSPWWIILMGIEHERIHIETSSVLIRQTDISLVLPQPEWSKCNVSGKAPENELLFVPGGEIEIGKYKSDDYYGWDNEYGKHKTVIPDFKASKYLVSNGEFMEFVKDGGYENDLWWEEEGLAWRNFKKAKHPIFWIPFKNEYRYRTLTEIVDMPLDWPVDVNYHEAKAFCNWLSAKKGKPIRLPVEDEWYRLKEYCNVPDVSKWDEKAPANINLEHYASACPVTQFSFGNFYDVIGNVWQWTETPIYPFNGFKIHPIFDDFSTPTFDNRHNLIKGGSFISTGNEILASSRYAFRRHFFQHAGFRYVESSYKEKINSSGYESDTQVSQYCEFGWGDRYFGIENYPKRCAKICIEVTEGKPRKKALDVGCAIGRSTLELATSFESVTGLDFSARFIEMAERMRKDGSIRYTITTEGELVEYKEATLPKRLAKVVDRVEFWQADACNLKPIFTGYDLVFAGNLIDRLYDPAKFLNDIGKRINSGGMLILTSPYTWLEEFTPKQKWLGGFKQDGEPVKSIDGLKSHLKDSFKLIETRDIEFVIRETARKFQHSVAQMSIWEKI
Take B2: in “purified protein [2]”, the Km was determined as 31.3 ± 4.0 µM and the kcat is listed as 14.8 ± 0.3 min^–1.

B3: OvoATh2 (Hydrogenimonas thermophila; Y61F) (protein)
chain: NKILLRPLLLKQKNPENLRQLIKKSFHRTFDTFESLFSMLRNDEAFYNRPEPLRHPHIFFFGHTAVFFINKLILSKIIDTRINAKMESIFAIGVDEMSWDDLNDDHYEWPSVEETRLYRNRVREVVDNLINTLPLELPITWDSPWWIILMGIEHERIHIETSSVLIRQTDISLVLPQPEWSKCNVSGKAPENELLFVPGGEIEIGKYKSDDYYGWDNEYGKHKTVIPDFKASKYLVSNGEFMEFVKDGGYENDLWWEEEGLAWRNFKKAKHPIFWIPFKNEYRYRTLTEIVDMPLDWPVDVNYHEAKAFCNWLSAKKGKPIRLPVEDEWYRLKEYCNVPDVSKWDEKAPANINLEHYASACPVTQFSFGNFYDVIGNVWQWTETPIYPFNGFKIHPIYDDFSTPTFDNRHNLIKGGSFISTGNEILASSRYAFRRHFFQHAGFRYVESSYKEKINSSGYESDTQVSQYCEFGWGDRYFGIENYPKRCAKICIEVTEGKPRKKALDVGCAIGRSTLELATSFESVTGLDFSARFIEMAERMRKDGSIRYTITTEGELVEYKEATLPKRLAKVVDRVEFWQADACNLKPIFTGYDLVFAGNLIDRLYDPAKFLNDIGKRINSGGMLILTSPYTWLEEFTPKQKWLGGFKQDGEPVKSIDGLKSHLKDSFKLIETRDIEFVIRETARKFQHSVAQMSIWEKI
On to B3, for which, in “purified protein [2]”, the Km was found to be 50.9 ± 2.5 µM and the kcat is reported as 23.4 ± 0.2 min^–1.

B4: OvoATh2 (Hydrogenimonas thermophila) (protein)
chain: NKILLRPLLLKQKNPENLRQLIKKSFHRTFDTFESLFSMLRNDEAFYNRPEPLRHPHIFYFGHTAVFFINKLILSKIIDTRINAKMESIFAIGVDEMSWDDLNDDHYEWPSVEETRLYRNRVREVVDNLINTLPLELPITWDSPWWIILMGIEHERIHIETSSVLIRQTDISLVLPQPEWSKCNVSGKAPENELLFVPGGEIEIGKYKSDDYYGWDNEYGKHKTVIPDFKASKYLVSNGEFMEFVKDGGYENDLWWEEEGLAWRNFKKAKHPIFWIPFKNEYRYRTLTEIVDMPLDWPVDVNYHEAKAFCNWLSAKKGKPIRLPVEDEWYRLKEYCNVPDVSKWDEKAPANINLEHYASACPVTQFSFGNFYDVIGNVWQWTETPIYPFNGFKIHPIYDDFSTPTFDNRHNLIKGGSFISTGNEILASSRYAFRRHFFQHAGFRYVESSYKEKINSSGYESDTQVSQYCEFGWGDRYFGIENYPKRCAKICIEVTEGKPRKKALDVGCAIGRSTLELATSFESVTGLDFSARFIEMAERMRKDGSIRYTITTEGELVEYKEATLPKRLAKVVDRVEFWQADACNLKPIFTGYDLVFAGNLIDRLYDPAKFLNDIGKRINSGGMLILTSPYTWLEEFTPKQKWLGGFKQDGEPVKSIDGLKSHLKDSFKLIETRDIEFVIRETARKFQHSVAQMSIWEKI
B4: in series [3], the Km is 61.9 ± 3.5 µM and the kcat was 127.2 ± 1.5 min^–1. In series [4], the Km was found to be 278.6 ± 9.0 µM, the kcat came out at 589.0 ± 3.5 min^–1 and the kcat/Km is 35000 ± 1500 M⁻¹ s⁻¹. Also, in series [5], the Km was determined as 585.1 ± 28.0 µM and the kcat came to 589.0 ± 3.5 min^–1.
